From patent US20210139559A1

Biological target: human VEGF165 ligand (human) (UniProt P15692)
Test: serial dilution mixed with 50 pM human VEGF165 in solution, unbound VEGF165 measured by ELISA

human VEGF165 ligand (human), sequence (P15692 other isoform, or with tags, fused parts or gaps limits assumed): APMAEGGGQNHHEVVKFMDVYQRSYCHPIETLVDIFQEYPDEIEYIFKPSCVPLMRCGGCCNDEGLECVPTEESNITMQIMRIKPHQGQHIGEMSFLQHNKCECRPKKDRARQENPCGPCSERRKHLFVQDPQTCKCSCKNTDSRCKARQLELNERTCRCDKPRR

Aflibercept (Fc fusion)
IC50: 9.82 pM
